{"source": "patent US20220306765A1", "about": "(SUZHOU TRANSCENTA THERAPEUTICS, published 2022)", "binders": {"B1": {"name": "59A9-C (antibody, human IgG1, V domains shown)", "VH": "QITQKESGPGILQPSQTLSLTCSLSGFSLSTYFIGVGWIRQPSGKGLEWLAHIWWNDNKYYNTALKSRLTISKDTSNNQVFLKIASVDTADTATYYCARMGSGAWFTYWGQGTLVTVSA", "VL": "DIVMTQSPSSLTVTAGEKVTMSCKSSQSLLNSGNQKNYLTWYQQKPGQPPKLLIYWASTRESGVPDRFTGSGSGTDFTLTISSVQAEDLAVYYCQNDYYYPLTFGSGTKLEIK", "notes": "also called chimeric 59A9"}}, "key": {"human CLDN18.2-mRFP L70A": {"molecular_target": "human CLDN18.2-mRFP L70A (human)", "experiment": "FACS, transfected HEK293, 10 µg/ml antibody;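 further: antibody binding detected by flow cytometry with FITC-labelled anti-human IgG secondary, gated on RFP-positive cells, mutant signal relative to wild-type CLDN18.2-mRFP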"}, "human CLDN18.2-mRFP V43A": {"molecular_target": "human CLDN18.2-mRFP V43A (human)", "experiment": "FACS, transfected HEK293, 10 µg/ml antibody"}, "human CLDN18.2-mRFP Q29A": {"molecular_target": "human CLDN18.2-mRFP Q29A (human)", "sequence (chain, as listed by the source Q29A Q29A limits assumed)": "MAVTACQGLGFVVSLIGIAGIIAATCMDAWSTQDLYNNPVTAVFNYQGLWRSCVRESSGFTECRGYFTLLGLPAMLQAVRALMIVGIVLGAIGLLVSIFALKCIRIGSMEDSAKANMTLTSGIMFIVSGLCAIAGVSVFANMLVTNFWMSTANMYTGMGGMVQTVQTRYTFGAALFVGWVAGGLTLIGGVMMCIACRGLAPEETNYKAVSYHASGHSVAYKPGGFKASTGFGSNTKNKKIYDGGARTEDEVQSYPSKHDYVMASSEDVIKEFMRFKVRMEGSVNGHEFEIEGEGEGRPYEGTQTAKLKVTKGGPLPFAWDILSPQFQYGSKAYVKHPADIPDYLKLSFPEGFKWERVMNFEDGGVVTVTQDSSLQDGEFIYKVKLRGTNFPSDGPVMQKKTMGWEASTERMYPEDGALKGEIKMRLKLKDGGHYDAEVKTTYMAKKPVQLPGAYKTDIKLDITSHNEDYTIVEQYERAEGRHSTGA", "experiment": "FACS, transfected HEK293, 10 µg/ml antibody"}, "human CLDN18.2-mRFP S31A": {"molecular_target": "human CLDN18.2-mRFP S31A (human)", "experiment": "FACS, transfected HEK293, 10 µg/ml antibody"}, "human CLDN18.2-mRFP V40A": {"molecular_target": "human CLDN18.2-mRFP V40A (human)", "sequence (chain, as listed by the source V40A V40A limits assumed)": "as the sequence (chain, as listed by the source Q29A Q29A limits assumed) above, with A29Q, V40A counted along it", "experiment": "FACS, transfected HEK293, 10 µg/ml antibody"}, "human CLDN18.2-mRFP F60A": {"molecular_target": "human CLDN18.2-mRFP F60A (human)", "experiment": "FACS, transfected HEK293, 10 µg/ml antibody"}, "[1]": {"molecular_target": "T1, human CLDN18.2-mRFP1, wild-type (human)", "T1 construct": "human CLDN18.2 (amino acid 1-261) fused to mRFP1 (amino acid 1-225), transiently expressed in HEK293 cells; also called wild-type human CLDN18.2-mRFP", "experiment": "FACS, transfected HEK293, 10 µg/ml antibody"}, "human CLDN18.2-mRFP N37A": {"molecular_target": "human CLDN18.2-mRFP N37A (human)", "experiment": "FACS, transfected HEK293, 10 µg/ml antibody"}, "human CLDN18.2-mRFP R51A": {"molecular_target": "human CLDN18.2-mRFP R51A (human)", "experiment": "FACS, transfected HEK293, 10 µg/ml antibody"}, "human CLDN18.2-mRFP R80A": {"molecular_target": "human CLDN18.2-mRFP R80A (human)", "sequence (chain, as listed by the source R80A R80A limits assumed)": "as the sequence (chain, as listed by the source Q29A Q29A limits assumed) above, with A29Q, R80A counted along it", "experiment": "FACS, transfected HEK293, 10 µg/ml antibody"}, "human CLDN18.2-mRFP S58A": {"molecular_target": "human CLDN18.2-mRFP S58A (human)", "sequence (chain, as listed by the source S58A S58A limits assumed)": "as the sequence (chain, as listed by the source Q29A Q29A limits assumed) above, with A29Q, S58A counted along it", "experiment": "FACS, transfected HEK293, 10 µg/ml antibody"}, "human CLDN18.2-mRFP V54A": {"molecular_target": "human CLDN18.2-mRFP V54A (human)", "sequence (chain, as listed by the source V54A V54A limits assumed)": "as the sequence (chain, as listed by the source Q29A Q29A limits assumed) above, with A29Q, V54A counted along it", "experiment": "FACS, transfected HEK293, 10 µg/ml antibody"}, "human CLDN18.2-mRFP T41A": {"molecular_target": "human CLDN18.2-mRFP T41A (human)", "experiment": "FACS, transfected HEK293, 10 µg/ml antibody"}, "human CLDN18.2-mRFP D34A": {"molecular_target": "human CLDN18.2-mRFP D34A (human)", "experiment": "FACS, transfected HEK293, 10 µg/ml antibody"}, "human CLDN18.2-mRFP W50A": {"molecular_target": "human CLDN18.2-mRFP W50A (human)", "experiment": "FACS, transfected HEK293, 10 µg/ml antibody"}, "human CLDN18.2-mRFP Q77A": {"molecular_target": "human CLDN18.2-mRFP Q77A (human)", "experiment": "FACS, transfected HEK293, 10 µg/ml antibody"}, "human CLDN18.2-mRFP L76A": {"molecular_target": "human CLDN18.2-mRFP L76A (human)", "experiment": "FACS, transfected HEK293, 10 µg/ml antibody"}, "human CLDN18.2-mRFP N38A": {"molecular_target": "human CLDN18.2-mRFP N38A (human)", "experiment": "FACS, transfected HEK293, 10 µg/ml antibody"}, "human CLDN18.2-mRFP L72A": {"molecular_target": "human CLDN18.2-mRFP L72A (human)", "experiment": "FACS, transfected HEK293, 10 µg/ml antibody"}, "human CLDN18.2-mRFP Y66A": {"molecular_target": "human CLDN18.2-mRFP Y66A (human)", "experiment": "FACS, transfected HEK293, 10 µg/ml antibody"}, "human CLDN18.2-mRFP F67A": {"molecular_target": "human CLDN18.2-mRFP F67A (human)", "sequence (chain, as listed by the source F67A F67A limits assumed)": "as the sequence (chain, as listed by the source Q29A Q29A limits assumed) above, with A29Q, F67A counted along it", "experiment": "FACS, transfected HEK293, 10 µg/ml antibody"}, "human CLDN18.2-mRFP S57A": {"molecular_target": "human CLDN18.2-mRFP S57A (human)", "sequence (chain, as listed by the source S57A S57A limits assumed)": "as the sequence (chain, as listed by the source Q29A Q29A limits assumed) above, with A29Q, S57A counted along it", "experiment": "FACS, transfected HEK293, 10 µg/ml antibody"}, "human CLDN18.2-mRFP Q47A": {"molecular_target": "human CLDN18.2-mRFP Q47A (human)", "experiment": "FACS, transfected HEK293, 10 µg/ml antibody"}, "human CLDN18.2-mRFP S52A": {"molecular_target": "human CLDN18.2-mRFP S52A (human)", "experiment": "FACS, transfected HEK293, 10 µg/ml antibody"}, "human CLDN18.2-mRFP T68A": {"molecular_target": "human CLDN18.2-mRFP T68A (human)", "experiment": "FACS, transfected HEK293, 10 µg/ml antibody"}, "human CLDN18.2-mRFP L35A": {"molecular_target": "human CLDN18.2-mRFP L35A (human)", "sequence (chain, as listed by the source L35A L35A limits assumed)": "as the sequence (chain, as listed by the source Q29A Q29A limits assumed) above, with A29Q, L35A counted along it", "experiment": "FACS, transfected HEK293, 10 µg/ml antibody"}, "human CLDN18.2-mRFP N45A": {"molecular_target": "human CLDN18.2-mRFP N45A (human)", "experiment": "FACS, transfected HEK293, 10 µg/ml antibody"}, "human CLDN18.2-mRFP R55A": {"molecular_target": "human CLDN18.2-mRFP R55A (human)", "experiment": "FACS, transfected HEK293, 10 µg/ml antibody"}, "human CLDN18.2-mRFP F44A": {"molecular_target": "human CLDN18.2-mRFP F44A (human)", "sequence (chain, as listed by the source F44A F44A limits assumed)": "as the sequence (chain, as listed by the source Q29A Q29A limits assumed) above, with A29Q, F44A counted along it", "experiment": "FACS, transfected HEK293, 10 µg/ml antibody"}, "human CLDN18.2-mRFP T32A": {"molecular_target": "human CLDN18.2-mRFP T32A (human)", "experiment": "FACS, transfected HEK293, 10 µg/ml antibody"}, "human CLDN18.2-mRFP W30A": {"molecular_target": "human CLDN18.2-mRFP W30A (human)", "experiment": "FACS, transfected HEK293, 10 µg/ml antibody"}, "human CLDN18.2-mRFP Q33A": {"molecular_target": "human CLDN18.2-mRFP Q33A (human)", "sequence (chain, as listed by the source Q33A Q33A limits assumed)": "as the sequence (chain, as listed by the source Q29A Q29A limits assumed) above, with A29Q, Q33A counted along it", "experiment": "FACS, transfected HEK293, 10 µg/ml antibody"}, "human CLDN18.2-mRFP T61A": {"molecular_target": "human CLDN18.2-mRFP T61A (human)", "experiment": "FACS, transfected HEK293, 10 µg/ml antibody"}, "human CLDN18.2-mRFP M75A": {"molecular_target": "human CLDN18.2-mRFP M75A (human)", "experiment": "FACS, transfected HEK293, 10 µg/ml antibody"}, "human CLDN18.2-mRFP R64A": {"molecular_target": "human CLDN18.2-mRFP R64A (human)", "experiment": "FACS, transfected HEK293, 10 µg/ml antibody"}, "human CLDN18.1": {"molecular_target": "T2, human CLDN18.1 (human, UniProt P56856 1-261)", "T2 construct": "on HEK293-CLDN18.1 cells; also called Claudin-18 splice variant 1; NP_057453.1", "experiment": "FACS, HEK293-CLDN18.1 cells"}}}
{"binder": "B1", "values": [{"measurement": "binding percentage vs wild-type CLDN18.2", "setting": "human CLDN18.2-mRFP L70A", "result": 82.1, "unit": "%"}, {"measurement": "binding percentage vs wild-type CLDN18.2", "setting": "human CLDN18.2-mRFP V43A", "result": 59.4, "unit": "%"}, {"measurement": "binding percentage vs wild-type CLDN18.2", "setting": "human CLDN18.2-mRFP Q29A", "result": 54.8, "unit": "%"}, {"measurement": "binding percentage vs wild-type CLDN18.2", "setting": "human CLDN18.2-mRFP S31A", "result": 76.8, "unit": "%"}, {"measurement": "binding percentage vs wild-type CLDN18.2", "setting": "human CLDN18.2-mRFP V40A", "result": 128, "unit": "%"}, {"measurement": "binding percentage vs wild-type CLDN18.2", "setting": "human CLDN18.2-mRFP F60A", "result": 64.4, "unit": "%"}, {"measurement": "binding percentage vs wild-type CLDN18.2", "setting": "[1]", "result": 100, "unit": "%"}, {"measurement": "binding percentage vs wild-type CLDN18.2", "setting": "human CLDN18.2-mRFP N37A", "result": 60.7, "unit": "%"}, {"measurement": "binding percentage vs wild-type CLDN18.2", "setting": "human CLDN18.2-mRFP R51A", "result": 22.1, "unit": "%"}, {"measurement": "binding percentage vs wild-type CLDN18.2", "setting": "human CLDN18.2-mRFP R80A", "result": 13.6, "unit": "%"}, {"measurement": "binding percentage vs wild-type CLDN18.2", "setting": "human CLDN18.2-mRFP S58A", "result": 39.4, "unit": "%"}, {"measurement": "binding percentage vs wild-type CLDN18.2", "setting": "human CLDN18.2-mRFP V54A", "result": 87.2, "unit": "%"}, {"measurement": "binding percentage vs wild-type CLDN18.2", "setting": "human CLDN18.2-mRFP T41A", "result": 41.6, "unit": "%"}, {"measurement": "binding percentage vs wild-type CLDN18.2", "setting": "human CLDN18.2-mRFP D34A", "result": 96.3, "unit": "%"}, {"measurement": "binding percentage vs wild-type CLDN18.2", "setting": "human CLDN18.2-mRFP W50A", "result": 5.05, "unit": "%"}, {"measurement": "binding percentage vs wild-type CLDN18.2", "setting": "human CLDN18.2-mRFP Q77A", "result": 63.4, "unit": "%"}, {"measurement": "binding percentage vs wild-type CLDN18.2", "setting": "human CLDN18.2-mRFP L76A", "result": 52.1, "unit": "%"}, {"measurement": "binding percentage vs wild-type CLDN18.2", "setting": "human CLDN18.2-mRFP N38A", "result": 57.6, "unit": "%"}, {"measurement": "binding percentage vs wild-type CLDN18.2", "setting": "human CLDN18.2-mRFP L72A", "result": 53, "unit": "%"}, {"measurement": "binding percentage vs wild-type CLDN18.2", "setting": "human CLDN18.2-mRFP Y66A", "result": 52.5, "unit": "%"}, {"measurement": "binding percentage vs wild-type CLDN18.2", "setting": "human CLDN18.2-mRFP F67A", "result": 79.9, "unit": "%"}, {"measurement": "binding percentage vs wild-type CLDN18.2", "setting": "human CLDN18.2-mRFP S57A", "result": 77.2, "unit": "%"}, {"measurement": "binding percentage vs wild-type CLDN18.2", "setting": "human CLDN18.2-mRFP Q47A", "result": 57.5, "unit": "%"}, {"measurement": "binding percentage vs wild-type CLDN18.2", "setting": "human CLDN18.2-mRFP S52A", "result": 99, "unit": "%"}, {"measurement": "binding percentage vs wild-type CLDN18.2", "setting": "human CLDN18.2-mRFP T68A", "result": 71.3, "unit": "%"}, {"measurement": "binding percentage vs wild-type CLDN18.2", "setting": "human CLDN18.2-mRFP L35A", "result": 75.4, "unit": "%"}, {"measurement": "binding percentage vs wild-type CLDN18.2", "setting": "human CLDN18.2-mRFP N45A", "result": 35.2, "unit": "%"}, {"measurement": "binding percentage vs wild-type CLDN18.2", "setting": "human CLDN18.2-mRFP R55A", "result": 49.7, "unit": "%"}, {"measurement": "binding percentage vs wild-type CLDN18.2", "setting": "human CLDN18.2-mRFP F44A", "result": 70, "unit": "%"}, {"measurement": "binding percentage vs wild-type CLDN18.2", "setting": "human CLDN18.2-mRFP T32A", "result": 85.6, "unit": "%"}, {"measurement": "binding percentage vs wild-type CLDN18.2", "setting": "human CLDN18.2-mRFP W30A", "result": 3.2, "unit": "%"}, {"measurement": "binding percentage vs wild-type CLDN18.2", "setting": "human CLDN18.2-mRFP Q33A", "result": 59.8, "unit": "%"}, {"measurement": "binding percentage vs wild-type CLDN18.2", "setting": "human CLDN18.2-mRFP T61A", "result": 51.6, "unit": "%"}, {"measurement": "binding percentage vs wild-type CLDN18.2", "setting": "human CLDN18.2-mRFP M75A", "result": 73.6, "unit": "%"}, {"measurement": "binding percentage vs wild-type CLDN18.2", "setting": "human CLDN18.2-mRFP R64A", "result": 51, "unit": "%"}, {"measurement": "binding result", "setting": "human CLDN18.1", "result": "no binding"}]}
